Data taken from patent publication US20170088585A1 (BAR ILAN UNIVERSITY, published 2017).
Square brackets hold non-standard residues; d marks the D form.

molecular target: Aβ40 (UniProt P05067 672-711); experiment: cell-based or functional assay
Sequence (P05067 672-711 limits assumed): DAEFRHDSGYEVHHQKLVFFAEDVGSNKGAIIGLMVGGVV

Binder | Inhibition at 1:1 (ThT assay, Aβ:cyclic peptide) [%] | Inhibition at 1:1/3 (ThT assay, Aβ:cyclic peptide) [%]
cyclo([dL]L[dW]A[dS]K) (SMILES CC(C)C[C@@H]1NC(=O)[C@@H](CC(C)C)NC(=O)[C@H](CCCCN)NC(=O)[C@@H](CO)NC(=O)[C@H](C)NC(=O)[C@@H](Cc2c[nH]c3ccccc23)NC1=O) [[lLwAsK]: Cyclo-D-leucine-L-leucine-D-tryptophan-L-alanine-D-serine-L-lysine] | 73 | 49
cyclo([dL]L[dA]H[dS]K) (SMILES CC(C)C[C@@H]1NC(=O)[C@@H](CC(C)C)NC(=O)[C@H](CCCCN)NC(=O)[C@@H](CO)NC(=O)[C@H](Cc2c[nH]cn2)NC(=O)[C@@H](C)NC1=O) [[lLaHsK]: Cyclo-D-leucine-L-leucine-D-alanine-L-histidine-D-serine-L-lysine] | 4 | 5
cyclo([dL]A[dW]H[dS]K) (SMILES CC(C)C[C@H]1NC(=O)[C@H](CCCCN)NC(=O)[C@@H](CO)NC(=O)[C@H](Cc2c[nH]cn2)NC(=O)[C@@H](Cc2c[nH]c3ccccc23)NC(=O)[C@H](C)NC1=O) [[lAwHsK]: Cyclo-D-leucine-L-alanine-D-tryptophan-L-histidine-D-serine-L-lysine] | 44 | 3
cyclo([dA]L[dW]H[dS]K) (SMILES CC(C)C[C@@H]1NC(=O)[C@@H](C)NC(=O)[C@H](CCCCN)NC(=O)[C@@H](CO)NC(=O)[C@H](Cc2c[nH]cn2)NC(=O)[C@@H](Cc2c[nH]c3ccccc23)NC1=O) [[aLwHsK]: Cyclo-D-alanine-L-leucine-D-tryptophan-L-histidine-D-serine-L-lysine] | 53 | 12

Now from value to binder:

Inhibition at 1:1 (ThT assay, Aβ:cyclic peptide) [%] | Inhibition at 1:1/3 (ThT assay, Aβ:cyclic peptide) [%] | Binder
56 | 47 | cyclo([dL]L[dW]H[dA]K) (SMILES CC(C)C[C@@H]1NC(=O)[C@@H](CC(C)C)NC(=O)[C@H](CCCCN)NC(=O)[C@@H](C)NC(=O)[C@H](Cc2c[nH]cn2)NC(=O)[C@@H](Cc2c[nH]c3ccccc23)NC1=O) [[lLwHaK]: Cyclo-D-leucine-L-leucine-D-tryptophan-L-histidine-D-alanine-L-lysine]
60 | 32 | cyclo([dL]L[dW]H[dS]K) (SMILES CC(C)C[C@@H]1NC(=O)[C@@H](CC(C)C)NC(=O)[C@H](CCCCN)NC(=O)[C@@H](CO)NC(=O)[C@H](Cc2c[nH]cn2)NC(=O)[C@@H](Cc2c[nH]c3ccccc23)NC1=O) [[lLwHsK]: Cyclo-D-leucine-L-leucine-D-tryptophan-L-histidine-D-serine-L-lysine]
67 | 48 | cyclo([dL]L[dW]H[dS]A) (SMILES CC(C)C[C@@H]1NC(=O)[C@@H](CC(C)C)NC(=O)[C@H](C)NC(=O)[C@@H](CO)NC(=O)[C@H](Cc2c[nH]cn2)NC(=O)[C@@H](Cc2c[nH]c3ccccc23)NC1=O) [[lLwHsA]: Cyclo-D-leucine-L-leucine-D-tryptophan-L-histidine-D-serine-L-alanine]
